Data on 167 variants can be found in the RNAGym collection of RNA variant scans (doi:10.7554/elife.90254).

First the molecules themselves.
B1: LINE1-mini (parent)
chain: GGCAGAGCUCAACACAGCGUGGCAAAGUGGCUGUGGCUAGACUGCC

In the data set the parent is B1. The experiment in a line: self-cleavage, relative activity (ratio to wild type); higher = more cleavage; in vitro, sequencing; the parent is a self-cleaving ribozyme.
On to G27C U43A, for which the self-cleavage was 0.09.

As to G27C U43C, the self-cleavage was determined as 0.07.

On to A26G U28A, for which the self-cleavage stood at 1.25.

Consider A26G U28C, for which the self-cleavage came out at 1.18.

Consider A26G U28G, for which the self-cleavage was 0.37.

With G27A C46A, the self-cleavage worked out at 1.19.

Regarding G27A C46G, the self-cleavage is 1.05.

On to G27A C46U, for which the self-cleavage is 2.06.

For G27U C45U, the self-cleavage stood at 1.6.

Turning to G27U C45G, the self-cleavage stood at 0.37.

Turning to G27U C45A, the self-cleavage is 0.92.

Turning to G27A G44A, the self-cleavage came out at 0.34.

Turning to G27A G44U, the self-cleavage came out at 0.3.

Consider G27A G44C, for which the self-cleavage amounted to 0.65.

On to A26C A41C, for which the self-cleavage was found to be 0.04.

For A26C A41U, the self-cleavage was determined as 0.72.

As for A26C A41G, the self-cleavage amounted to 0.23.

As to A26U C45U, the self-cleavage came to 0.83.

Consider A26U C45G, for which the self-cleavage came out at 0.64.

As to A26U C45A, the self-cleavage came out at 1.95.

On to G27U, for which the self-cleavage came to 0.83.

Turning to G27C, the self-cleavage worked out at 0.72.

Consider G27A, for which the self-cleavage was determined as 0.81.

As for A26G U38G, the self-cleavage stood at 0.01.

A26G U38A: the self-cleavage was 0.52.

For the variant A26G U38C, the self-cleavage was found to be 0.44.

Turning to A26U A39C, the self-cleavage is 0.25.

As for A26U A39U, the self-cleavage turned out to be 2.46.

Turning to A26U A39G, the self-cleavage turned out to be 0.22.

Consider G27C C37G, for which the self-cleavage was 0.02.

For the variant G27C C37U, the self-cleavage was 0.04.

As to G27C C37A, the self-cleavage stood at 0.06.

For the variant A26U C46G, the self-cleavage is 1.18.

Regarding A26U C46A, the self-cleavage is 0.77.

A26U C46U: the self-cleavage was 2.38.

With G27U G29C, the self-cleavage stood at 0.27.

In the case of G27U G29U, the self-cleavage came out at 1.03.

Take G27U G29A: the self-cleavage came to 0.96.

With G27U G30C, the self-cleavage is 1.79.

For G27U G30U, the self-cleavage amounted to 1.53.

On to G27U G30A, for which the self-cleavage amounted to 1.86.

Regarding A26C U28A, the self-cleavage amounted to 0.53.

In the case of A26C U28G, the self-cleavage stood at 0.66.

On to A26C U28C, for which the self-cleavage is 0.4.

As for A26G U34G, the self-cleavage was determined as 0.03.

As to A26G U34A, the self-cleavage is 0.04.

As to A26G U34C, the self-cleavage stood at 0.08.

On to G27A C45U, for which the self-cleavage worked out at 1.88.

Consider G27A C45A, for which the self-cleavage was 0.79.

For G27A C45G, the self-cleavage is 0.51.

Turning to G27C U38G, the self-cleavage came to 0.02.

With G27C U38A, the self-cleavage was 0.34.

Take G27C U38C: the self-cleavage is 0.29.

Regarding A26G C42G, the self-cleavage amounted to 0.05.

Consider A26G C42U, for which the self-cleavage is 0.13.

For the variant A26G C42A, the self-cleavage was found to be 0.08.

For the variant G27A U28A, the self-cleavage stood at 0.77.

In the case of G27A U28C, the self-cleavage was 0.87.

Take G27A U28G: the self-cleavage was found to be 0.4.

Turning to G27C U28C, the self-cleavage stood at 1.12.

For the variant G27C U28A, the self-cleavage was determined as 0.54.

Take G27C U28G: the self-cleavage is 0.51.

With A26C C37A, the self-cleavage came to 0.05.

As to A26C C37U, the self-cleavage turned out to be 0.07.

Regarding A26C C37G, the self-cleavage is 0.02.

Regarding G27C G36C, the self-cleavage was 0.09.

As to G27C G36U, the self-cleavage worked out at 0.05.

For the variant G27C G36A, the self-cleavage amounted to 0.35.

As for A26C U43C, the self-cleavage stood at 0.25.

Consider A26C U43A, for which the self-cleavage was 0.07.

On to A26C U43G, for which the self-cleavage turned out to be 0.12.

Consider G27A G30U, for which the self-cleavage was found to be 1.61.

Take G27A G30A: the self-cleavage turned out to be 2.28.

Turning to G27A G30C, the self-cleavage was 1.53.

On to A26C G44C, for which the self-cleavage amounted to 0.35.

With A26C G44A, the self-cleavage stood at 0.87.

For the variant A26C G44U, the self-cleavage is 0.28.

As to G27A U43C, the self-cleavage was 0.37.

Turning to G27A U43A, the self-cleavage turned out to be 0.08.

With G27A U43G, the self-cleavage worked out at 0.05.

As for G27A G33C, the self-cleavage is 0.08.

Turning to G27A G33A, the self-cleavage stood at 0.1.

On to G27A G33U, for which the self-cleavage came out at 0.17.

Take A26C G30A: the self-cleavage is 1.12.

As for A26C G30U, the self-cleavage is 1.45.

For A26C C42U, the self-cleavage is 0.48.

Regarding A26C C42G, the self-cleavage was 0.04.

On to A26C C42A, for which the self-cleavage was determined as 0.16.

A26C G40C: the self-cleavage was determined as 0.07.

On to A26C G40A, for which the self-cleavage was found to be 0.12.

Regarding A26C G40U, the self-cleavage worked out at 0.09.

On to G27C A39G, for which the self-cleavage came out at 0.06.

On to G27C A39C, for which the self-cleavage stood at 0.11.

Regarding G27C A39U, the self-cleavage came out at 0.76.

As for G27A C31G, the self-cleavage stood at 0.2.

Regarding G27A C31A, the self-cleavage turned out to be 1.09.

As for G27A C31U, the self-cleavage was 0.26.

G27A G36C: the self-cleavage was 0.25.

On to G27A G36U, for which the self-cleavage was found to be 0.08.

As for G27A G36A, the self-cleavage was 0.09.

A26G C45U: the self-cleavage worked out at 0.77.

In the case of A26G C45A, the self-cleavage was 1.06.

On to A26G C45G, for which the self-cleavage amounted to 0.31.

With G27C G44A, the self-cleavage stood at 0.47.

For the variant G27C G44U, the self-cleavage came out at 0.38.

As to G27C G44C, the self-cleavage amounted to 0.14.

For the variant A26U U28C, the self-cleavage came out at 0.74.

As to A26U U28G, the self-cleavage is 1.74.

A26U U28A: the self-cleavage stood at 0.88.

G27U G33A: the self-cleavage was determined as 0.09.

For the variant G27C C46A, the self-cleavage is 0.71.

For G27C C46U, the self-cleavage was 1.09.

Take G27C C46G: the self-cleavage worked out at 0.59.

On to A26G G29C, for which the self-cleavage came to 0.89.

Consider A26G G29A, for which the self-cleavage is 0.36.

On to A26G G29U, for which the self-cleavage came to 1.23.

With G27C C31A, the self-cleavage was determined as 0.15.

Consider G27C C31G, for which the self-cleavage was 0.05.

As to G27C C31U, the self-cleavage is 0.07.

G27A A41G: the self-cleavage stood at 0.38.

For G27A A41C, the self-cleavage was found to be 0.04.

On to G27A A41U, for which the self-cleavage turned out to be 0.49.

As to A26G G33A, the self-cleavage is 0.09.

Take A26G G33C: the self-cleavage turned out to be 0.08.

In the case of A26G G33U, the self-cleavage amounted to 0.07.

For the variant A26U G29U, the self-cleavage was determined as 1.61.

For the variant A26U G29A, the self-cleavage amounted to 1.35.

As to A26U G29C, the self-cleavage was determined as 0.35.

Regarding G27A G40C, the self-cleavage worked out at 0.17.

In the case of G27A G40A, the self-cleavage turned out to be 0.18.

Take G27A G40U: the self-cleavage stood at 0.14.

Turning to G27U A39U, the self-cleavage was 0.56.

Turning to G27U A39C, the self-cleavage came to 0.22.

For the variant G27U A39G, the self-cleavage worked out at 0.22.

Take G27C C45A: the self-cleavage came to 0.29.

Take G27C C45U: the self-cleavage was found to be 2.02.

Regarding G27C C45G, the self-cleavage came to 0.32.

Consider A26C G33A, for which the self-cleavage worked out at 0.17.

A26C G33C: the self-cleavage was 0.07.

Turning to A26C G33U, the self-cleavage came out at 0.08.

With A26U G36U, the self-cleavage is 0.09.

With A26U G36C, the self-cleavage was found to be 0.13.

Turning to A26U G36A, the self-cleavage was 0.23.

As to A26G C31A, the self-cleavage stood at 0.11.

On to A26G C31U, for which the self-cleavage is 0.15.

As to A26G C31G, the self-cleavage was found to be 0.06.

Consider G27A C42U, for which the self-cleavage is 0.26.

On to G27A C42A, for which the self-cleavage worked out at 0.21.

As to G27A C42G, the self-cleavage turned out to be 0.05.

For the variant A26G A39U, the self-cleavage is 0.5.

For the variant A26G A39C, the self-cleavage is 0.18.

On to A26G A39G, for which the self-cleavage was determined as 0.05.

As to A26U A41U, the self-cleavage worked out at 0.75.

Consider A26U A41G, for which the self-cleavage came to 0.37.

A26U A41C: the self-cleavage worked out at 0.07.

Turning to A26U G40U, the self-cleavage was found to be 0.13.

On to A26U G40C, for which the self-cleavage stood at 0.06.

On to A26U G40A, for which the self-cleavage amounted to 0.17.

As for A26G G35C, the self-cleavage was found to be 0.1.

As to A26G G35U, the self-cleavage was determined as 0.16.

Take A26G G35A: the self-cleavage was found to be 0.1.

With A25U U34A, the self-cleavage was found to be 0.16.

As for A25U U34C, the self-cleavage is 0.13.

For A25U U34G, the self-cleavage is 0.16.

Turning to A26G G27U, the self-cleavage was 0.94.

For A26G G27A, the self-cleavage came out at 0.99.

Take A26G G27C: the self-cleavage was 1.15.
